According to article PMC9995270 (Nature, 2023):

Key:
[1] = target: T1, H–PaMurA(E406K) (P. aeruginosa, UniProt Q9HVW7 1-421, E406K); assay: […] (1:1), 25 mM Tris pH 8.0, 150 mM NaCl, 10% glycerol, 1 mM DTT, […]; conditions: both partners purified
T1 construct: source: purified (details in the Supplementary Information)

[2] = target: T2, His-tagged PaMurA (P. aeruginosa, UniProt Q9HVW7 1-421); assay: as above; conditions: both partners purified
T2 construct: MurA of Pseudomonas aeruginosa PAO1; UniProt Q9HVW7 is printed for the covariation analysis; also called H–PaMurA; H–PaMurA(WT); source: purified (details in the Supplementary Information)

B1: Flag-tagged PaLpxC (enzyme)
chain: MIKQRTLKNIIRATGVGLHSGEKVYLTLKPAPVDTGIVFCRTDLDPVVEIPARAENVGETTMSTTLVKGDVKVDTVEHLLSAMAGLGIDNAYVELSASEVPIMDGSAGPFVFLIQSAGLQEQEAAKKFIRIKREVSVEEGDKRAVFVPFDGFKVSFEIDFDHPVFRGRTQQASVDFSSTSFVKEVSRARTFGFMRDIEYLRSQNLALGGSVENAIVVDENRVLNEDGLRYEDEFVKHKILDAIGDLYLLGNSLIGEFRGFKSGHALNNQLLRTLIADKDAWEVVTFEDARTAPISYMRPAAAV
notes: LpxC of Pseudomonas aeruginosa PAO1; UniProt P47205 is printed for the covariation analysis; also called F–PaLpxC; F–LpxC; source: purified (details in the Supplementary Information)
binding result [1]: binds
binding result [2]: binds
